From patent US20200024322A1 (Eli Lilly, published 2020)
Numbered stars: 1 amine (or outer) side, 2 acyl side, 3 side chain; on linkers, the order of the positions; unused ones are H or OH. Square brackets hold non-standard residues; d marks the D form. Side chains are listed from the residue outwards. Ends that are not written are not given here. * marks the point of attachment. C20 diacid = O=C(O)CCCCCCCCCCCCCCCCCCC(=O)*; γGlu = O=C(O)[C@H](CCC(=O)[*:2])N[*:1]; AEEA = NCCOCCOCC(=O)O; Aib = CC(C)(N)C(=O)O

T1: human GIP receptor (human, UniProt P48546 22-466)
T1 construct: whole, on cells; Used as crude membranes of stably transfected CHO cells; also called hGIPR
T1 sequence (looked up): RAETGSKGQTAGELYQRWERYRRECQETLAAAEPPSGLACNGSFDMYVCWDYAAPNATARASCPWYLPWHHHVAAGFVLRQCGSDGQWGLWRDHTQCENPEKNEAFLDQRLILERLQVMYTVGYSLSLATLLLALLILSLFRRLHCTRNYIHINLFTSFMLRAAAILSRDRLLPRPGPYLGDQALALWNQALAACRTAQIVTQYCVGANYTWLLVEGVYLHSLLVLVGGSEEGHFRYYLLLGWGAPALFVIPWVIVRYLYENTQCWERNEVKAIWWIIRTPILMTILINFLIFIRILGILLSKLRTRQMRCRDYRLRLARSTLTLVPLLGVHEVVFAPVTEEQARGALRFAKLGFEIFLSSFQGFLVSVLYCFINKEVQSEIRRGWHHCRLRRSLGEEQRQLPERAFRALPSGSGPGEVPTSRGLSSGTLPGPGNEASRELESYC


How the values were obtained:
[1] = molecular target: T2, human glucagon receptor (human, UniProt P47871 26-477); assay: SPA, [125I]-Gcg displacement, hGcgR membranes
T2 construct: whole, on cells; Used as crude membranes of stably transfected HEK293 cells; also called hGcgR; hGLcgR

[2] = molecular target: T1, human GIP receptor; assay: SPA, [125I]-GIP displacement, hGIPR membranes
[3] = molecular target: T3, human GLP-1 receptor (human, UniProt P43220 24-463); assay: SPA, [125I]-GLP-1 displacement, hGLP-1R membranes
T3 construct: whole, on cells; Used as crude membranes of stably transfected HEK293 cells; also called hGLP1R; hGLP-1R

T2 sequence (P47871 26-477): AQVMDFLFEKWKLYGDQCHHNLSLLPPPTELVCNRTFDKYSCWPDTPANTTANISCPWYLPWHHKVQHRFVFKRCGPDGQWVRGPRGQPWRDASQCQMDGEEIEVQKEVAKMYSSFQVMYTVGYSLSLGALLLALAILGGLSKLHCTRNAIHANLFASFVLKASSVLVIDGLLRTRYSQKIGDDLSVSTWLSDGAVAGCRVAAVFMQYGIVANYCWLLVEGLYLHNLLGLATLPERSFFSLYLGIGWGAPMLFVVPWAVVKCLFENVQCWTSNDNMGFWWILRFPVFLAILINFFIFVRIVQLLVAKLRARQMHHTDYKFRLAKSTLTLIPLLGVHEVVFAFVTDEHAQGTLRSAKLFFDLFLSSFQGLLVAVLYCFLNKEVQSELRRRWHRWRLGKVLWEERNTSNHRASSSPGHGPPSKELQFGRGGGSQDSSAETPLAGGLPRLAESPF

Binder	Ki [1]	Ki [2]	Ki [3]
Y[Aib]EGTFTSDYSK([AEEA-AEEA-γGlu-C20 diacid])LLDKIAQ[Aib]AFIEYLIEGGPSSGAPPPS-NH2 (N-terminus assumed; SMILES CC[C@H](C)[C@H](NC(=O)[C@H](CCCCN)NC(=O)[C@H](CC(=O)O)NC(=O)[C@H](CC(C)C)NC(=O)[C@H](CC(C)C)NC(=O)[C@H](CCCCNC(=O)COCCOCCNC(=O)COCCOCCNC(=O)CC[C@H](NC(=O)CCCCCCCCCCCCCCCCCCC(=O)O)C(=O)O)NC(=O)[C@H](CO)NC(=O)[C@H](Cc1ccc(O)cc1)NC(=O)[C@H](CC(=O)O)NC(=O)[C@H](CO)NC(=O)[C@@H](NC(=O)[C@H](Cc1ccccc1)NC(=O)[C@@H](NC(=O)CNC(=O)[C@H](CCC(=O)O)NC(=O)C(C)(C)NC(=O)[C@@H](N)Cc1ccc(O)cc1)[C@@H](C)O)[C@@H](C)O)C(=O)N[C@@H](C)C(=O)N[C@@H](CCC(N)=O)C(=O)NC(C)(C)C(=O)N[C@@H](C)C(=O)N[C@@H](Cc1ccccc1)C(=O)N[C@H](C(=O)N[C@@H](CCC(=O)O)C(=O)N[C@@H](Cc1ccc(O)cc1)C(=O)N[C@@H](CC(C)C)C(=O)N[C@H](C(=O)N[C@@H](CCC(=O)O)C(=O)NCC(=O)NCC(=O)N1CCC[C@H]1C(=O)N[C@@H](CO)C(=O)N[C@@H](CO)C(=O)NCC(=O)N[C@@H](C)C(=O)N1CCC[C@H]1C(=O)N1CCC[C@H]1C(=O)N1CCC[C@H]1C(=O)N[C@@H](CO)C(N)=O)[C@@H](C)CC)[C@@H](C)CC) [Example 25]	81.1 nM	0.179 nM	4.8 nM
Y[Aib]EGTFTSDYSILLDKIK([AEEA-AEEA-γGlu-C20 diacid])Q[Aib]AFIEYLIEGGPSSGAPPPS-NH2 (N-terminus assumed; SMILES CC[C@H](C)[C@H](NC(=O)[C@H](CC(C)C)NC(=O)[C@H](Cc1ccc(O)cc1)NC(=O)[C@H](CCC(=O)O)NC(=O)[C@@H](NC(=O)[C@H](Cc1ccccc1)NC(=O)[C@H](C)NC(=O)C(C)(C)NC(=O)[C@H](CCC(N)=O)NC(=O)[C@H](CCCCNC(=O)COCCOCCNC(=O)COCCOCCNC(=O)CC[C@H](NC(=O)CCCCCCCCCCCCCCCCCCC(=O)O)C(=O)O)NC(=O)[C@@H](NC(=O)[C@H](CCCCN)NC(=O)[C@H](CC(=O)O)NC(=O)[C@H](CC(C)C)NC(=O)[C@H](CC(C)C)NC(=O)[C@@H](NC(=O)[C@H](CO)NC(=O)[C@H](Cc1ccc(O)cc1)NC(=O)[C@H](CC(=O)O)NC(=O)[C@H](CO)NC(=O)[C@@H](NC(=O)[C@H](Cc1ccccc1)NC(=O)[C@@H](NC(=O)CNC(=O)[C@H](CCC(=O)O)NC(=O)C(C)(C)NC(=O)[C@@H](N)Cc1ccc(O)cc1)[C@@H](C)O)[C@@H](C)O)[C@@H](C)CC)[C@@H](C)CC)[C@@H](C)CC)C(=O)N[C@@H](CCC(=O)O)C(=O)NCC(=O)NCC(=O)N1CCC[C@H]1C(=O)N[C@@H](CO)C(=O)N[C@@H](CO)C(=O)NCC(=O)N[C@@H](C)C(=O)N1CCC[C@H]1C(=O)N1CCC[C@H]1C(=O)N1CCC[C@H]1C(=O)N[C@@H](CO)C(N)=O) [Example 30]	123 nM	0.151 nM	6.2 nM
Y[Aib]EGTFTSDYSILLDKIAK([AEEA-AEEA-γGlu-C20 diacid])[Aib]AFIEYLIEGGPSSGAPPPS-NH2 (N-terminus assumed; SMILES CC[C@H](C)[C@H](NC(=O)[C@H](CCCCN)NC(=O)[C@H](CC(=O)O)NC(=O)[C@H](CC(C)C)NC(=O)[C@H](CC(C)C)NC(=O)[C@@H](NC(=O)[C@H](CO)NC(=O)[C@H](Cc1ccc(O)cc1)NC(=O)[C@H](CC(=O)O)NC(=O)[C@H](CO)NC(=O)[C@@H](NC(=O)[C@H](Cc1ccccc1)NC(=O)[C@@H](NC(=O)CNC(=O)[C@H](CCC(=O)O)NC(=O)C(C)(C)NC(=O)[C@@H](N)Cc1ccc(O)cc1)[C@@H](C)O)[C@@H](C)O)[C@@H](C)CC)C(=O)N[C@@H](C)C(=O)N[C@@H](CCCCNC(=O)COCCOCCNC(=O)COCCOCCNC(=O)CC[C@H](NC(=O)CCCCCCCCCCCCCCCCCCC(=O)O)C(=O)O)C(=O)NC(C)(C)C(=O)N[C@@H](C)C(=O)N[C@@H](Cc1ccccc1)C(=O)N[C@H](C(=O)N[C@@H](CCC(=O)O)C(=O)N[C@@H](Cc1ccc(O)cc1)C(=O)N[C@@H](CC(C)C)C(=O)N[C@H](C(=O)N[C@@H](CCC(=O)O)C(=O)NCC(=O)NCC(=O)N1CCC[C@H]1C(=O)N[C@@H](CO)C(=O)N[C@@H](CO)C(=O)NCC(=O)N[C@@H](C)C(=O)N1CCC[C@H]1C(=O)N1CCC[C@H]1C(=O)N1CCC[C@H]1C(=O)N[C@@H](CO)C(N)=O)[C@@H](C)CC)[C@@H](C)CC) [Example 31]	290 nM	0.0275 nM	6.58 nM
Y[Aib]EGTFTSDYSILLDKIAQ[Aib]AFIK([AEEA-AEEA-γGlu-C20 diacid])YLIEGGPSSGAPPPS-NH2 (N-terminus assumed; SMILES CC[C@H](C)[C@H](NC(=O)[C@H](CCCCN)NC(=O)[C@H](CC(=O)O)NC(=O)[C@H](CC(C)C)NC(=O)[C@H](CC(C)C)NC(=O)[C@@H](NC(=O)[C@H](CO)NC(=O)[C@H](Cc1ccc(O)cc1)NC(=O)[C@H](CC(=O)O)NC(=O)[C@H](CO)NC(=O)[C@@H](NC(=O)[C@H](Cc1ccccc1)NC(=O)[C@@H](NC(=O)CNC(=O)[C@H](CCC(=O)O)NC(=O)C(C)(C)NC(=O)[C@@H](N)Cc1ccc(O)cc1)[C@@H](C)O)[C@@H](C)O)[C@@H](C)CC)C(=O)N[C@@H](C)C(=O)N[C@@H](CCC(N)=O)C(=O)NC(C)(C)C(=O)N[C@@H](C)C(=O)N[C@@H](Cc1ccccc1)C(=O)N[C@H](C(=O)N[C@@H](CCCCNC(=O)COCCOCCNC(=O)COCCOCCNC(=O)CC[C@H](NC(=O)CCCCCCCCCCCCCCCCCCC(=O)O)C(=O)O)C(=O)N[C@@H](Cc1ccc(O)cc1)C(=O)N[C@@H](CC(C)C)C(=O)N[C@H](C(=O)N[C@@H](CCC(=O)O)C(=O)NCC(=O)NCC(=O)N1CCC[C@H]1C(=O)N[C@@H](CO)C(=O)N[C@@H](CO)C(=O)NCC(=O)N[C@@H](C)C(=O)N1CCC[C@H]1C(=O)N1CCC[C@H]1C(=O)N1CCC[C@H]1C(=O)N[C@@H](CO)C(N)=O)[C@@H](C)CC)[C@@H](C)CC) [Example 34]	134 nM	0.0467 nM	3.41 nM
Y[Aib]EGTFTSDYSILK([AEEA-AEEA-γGlu-C20 diacid])DKIAQ[Aib]AFIEYLIEGGPSSGAPPPS-NH2 (N-terminus assumed; SMILES CC[C@H](C)[C@H](NC(=O)[C@H](CCCCN)NC(=O)[C@H](CC(=O)O)NC(=O)[C@H](CCCCNC(=O)COCCOCCNC(=O)COCCOCCNC(=O)CC[C@H](NC(=O)CCCCCCCCCCCCCCCCCCC(=O)O)C(=O)O)NC(=O)[C@H](CC(C)C)NC(=O)[C@@H](NC(=O)[C@H](CO)NC(=O)[C@H](Cc1ccc(O)cc1)NC(=O)[C@H](CC(=O)O)NC(=O)[C@H](CO)NC(=O)[C@@H](NC(=O)[C@H](Cc1ccccc1)NC(=O)[C@@H](NC(=O)CNC(=O)[C@H](CCC(=O)O)NC(=O)C(C)(C)NC(=O)[C@@H](N)Cc1ccc(O)cc1)[C@@H](C)O)[C@@H](C)O)[C@@H](C)CC)C(=O)N[C@@H](C)C(=O)N[C@@H](CCC(N)=O)C(=O)NC(C)(C)C(=O)N[C@@H](C)C(=O)N[C@@H](Cc1ccccc1)C(=O)N[C@H](C(=O)N[C@@H](CCC(=O)O)C(=O)N[C@@H](Cc1ccc(O)cc1)C(=O)N[C@@H](CC(C)C)C(=O)N[C@H](C(=O)N[C@@H](CCC(=O)O)C(=O)NCC(=O)NCC(=O)N1CCC[C@H]1C(=O)N[C@@H](CO)C(=O)N[C@@H](CO)C(=O)NCC(=O)N[C@@H](C)C(=O)N1CCC[C@H]1C(=O)N1CCC[C@H]1C(=O)N1CCC[C@H]1C(=O)N[C@@H](CO)C(N)=O)[C@@H](C)CC)[C@@H](C)CC) [Example 27]	315 nM	0.103 nM	3.68 nM
Y[Aib]EGTFTSDYSILLDKIAQ[Aib]K([AEEA-AEEA-γGlu-C20 diacid])FIEYLIEGGPSSGAPPPS-NH2 (N-terminus assumed; SMILES CC[C@H](C)[C@H](NC(=O)[C@H](CCCCN)NC(=O)[C@H](CC(=O)O)NC(=O)[C@H](CC(C)C)NC(=O)[C@H](CC(C)C)NC(=O)[C@@H](NC(=O)[C@H](CO)NC(=O)[C@H](Cc1ccc(O)cc1)NC(=O)[C@H](CC(=O)O)NC(=O)[C@H](CO)NC(=O)[C@@H](NC(=O)[C@H](Cc1ccccc1)NC(=O)[C@@H](NC(=O)CNC(=O)[C@H](CCC(=O)O)NC(=O)C(C)(C)NC(=O)[C@@H](N)Cc1ccc(O)cc1)[C@@H](C)O)[C@@H](C)O)[C@@H](C)CC)C(=O)N[C@@H](C)C(=O)N[C@@H](CCC(N)=O)C(=O)NC(C)(C)C(=O)N[C@@H](CCCCNC(=O)COCCOCCNC(=O)COCCOCCNC(=O)CC[C@H](NC(=O)CCCCCCCCCCCCCCCCCCC(=O)O)C(=O)O)C(=O)N[C@@H](Cc1ccccc1)C(=O)N[C@H](C(=O)N[C@@H](CCC(=O)O)C(=O)N[C@@H](Cc1ccc(O)cc1)C(=O)N[C@@H](CC(C)C)C(=O)N[C@H](C(=O)N[C@@H](CCC(=O)O)C(=O)NCC(=O)NCC(=O)N1CCC[C@H]1C(=O)N[C@@H](CO)C(=O)N[C@@H](CO)C(=O)NCC(=O)N[C@@H](C)C(=O)N1CCC[C@H]1C(=O)N1CCC[C@H]1C(=O)N1CCC[C@H]1C(=O)N[C@@H](CO)C(N)=O)[C@@H](C)CC)[C@@H](C)CC) [Example 32]	44.7 nM	0.0205 nM	3.96 nM
